# Measurements from PMC3454426.
# Tests used:
# [1] = target: Moniliophthora perniciosa necrosis- and ethylene-inducing protein 2 (MpNep2) (Moniliophthora perniciosa); assay: dynamic light scattering; monomer 120 uM and dimer 45 uM in 20 mM phosphate, 80 mM NaCl, pH 7.4, 25°C
# [2] = target: Moniliophthora perniciosa necrosis- and ethylene-inducing protein 2 (MpNep2) (Moniliophthora perniciosa); assay: SEC; preparative Sephacryl S100 16/60 and analytical UFLC on Superdex 200 or 75, 0.7 mL/min; 20 mM phosphate pH 7.4, 80 mM NaCl; also at different ionic strengths and after 1 mM 2-mercaptoethanol
substance,measurement,setting,value
Moniliophthora perniciosa necrosis- and ethylene-inducing protein 2 (MpNep2) (natural protein),stoichiometry N,[1],2
same,stoichiometry N,[2],2
